Source: publication PMC139973

B1: CXCR4: N11Q/N176Q (protein)
parent chain: MEGISIYTSDNYTEEMGSGDYDSMKEPCFREENANFNKIFLPTIYSIIFLTGIVGNGLVILVMGYQKKLRSMTDKYRLHLSVADLLFVITLPFWAVDAVANWYFGNFLCKAVHVIYTVNLYSSVLILAFISLDRYLAIVHATNSQRPRKLLAEKVVYVGVWIPALLLTIPDFIFANVSEADDRYICDRFYPNDLWVVVFQFQHIMVGLILPGIVILSCYCIIISKLSHSKGHQKRKALKTTVILILAFFACWLPYYIGISIDSFILLEIIKQGCEFENTVHKWISITEALAFFHCCLNPILYAFLGAKFKTSAQHALTSVSRGSSLKILSKGKRGGHSSVSTESESSSFHSS
B2: CXCR4: S178A (protein)
parent chain: MEGISIYTSDNYTEEMGSGDYDSMKEPCFREENANFNKIFLPTIYSIIFLTGIVGNGLVILVMGYQKKLRSMTDKYRLHLSVADLLFVITLPFWAVDAVANWYFGNFLCKAVHVIYTVNLYSSVLILAFISLDRYLAIVHATNSQRPRKLLAEKVVYVGVWIPALLLTIPDFIFANVSEADDRYICDRFYPNDLWVVVFQFQHIMVGLILPGIVILSCYCIIISKLSHSKGHQKRKALKTTVILILAFFACWLPYYIGISIDSFILLEIIKQGCEFENTVHKWISITEALAFFHCCLNPILYAFLGAKFKTSAQHALTSVSRGSSLKILSKGKRGGHSSVSTESESSSFHSS
B3: CXCR4: T13A (protein)
parent chain: MEGISIYTSDNYTEEMGSGDYDSMKEPCFREENANFNKIFLPTIYSIIFLTGIVGNGLVILVMGYQKKLRSMTDKYRLHLSVADLLFVITLPFWAVDAVANWYFGNFLCKAVHVIYTVNLYSSVLILAFISLDRYLAIVHATNSQRPRKLLAEKVVYVGVWIPALLLTIPDFIFANVSEADDRYICDRFYPNDLWVVVFQFQHIMVGLILPGIVILSCYCIIISKLSHSKGHQKRKALKTTVILILAFFACWLPYYIGISIDSFILLEIIKQGCEFENTVHKWISITEALAFFHCCLNPILYAFLGAKFKTSAQHALTSVSRGSSLKILSKGKRGGHSSVSTESESSSFHSS
B4: CXCR4: N11Q (protein)
parent chain: MEGISIYTSDNYTEEMGSGDYDSMKEPCFREENANFNKIFLPTIYSIIFLTGIVGNGLVILVMGYQKKLRSMTDKYRLHLSVADLLFVITLPFWAVDAVANWYFGNFLCKAVHVIYTVNLYSSVLILAFISLDRYLAIVHATNSQRPRKLLAEKVVYVGVWIPALLLTIPDFIFANVSEADDRYICDRFYPNDLWVVVFQFQHIMVGLILPGIVILSCYCIIISKLSHSKGHQKRKALKTTVILILAFFACWLPYYIGISIDSFILLEIIKQGCEFENTVHKWISITEALAFFHCCLNPILYAFLGAKFKTSAQHALTSVSRGSSLKILSKGKRGGHSSVSTESESSSFHSS
B5: CXCR4: N176Q (protein)
parent chain: MEGISIYTSDNYTEEMGSGDYDSMKEPCFREENANFNKIFLPTIYSIIFLTGIVGNGLVILVMGYQKKLRSMTDKYRLHLSVADLLFVITLPFWAVDAVANWYFGNFLCKAVHVIYTVNLYSSVLILAFISLDRYLAIVHATNSQRPRKLLAEKVVYVGVWIPALLLTIPDFIFANVSEADDRYICDRFYPNDLWVVVFQFQHIMVGLILPGIVILSCYCIIISKLSHSKGHQKRKALKTTVILILAFFACWLPYYIGISIDSFILLEIIKQGCEFENTVHKWISITEALAFFHCCLNPILYAFLGAKFKTSAQHALTSVSRGSSLKILSKGKRGGHSSVSTESESSSFHSS

How the values were obtained:
[1] = p24 ELISA of virus replication over 12 days; conditions: glycan lost; control: CXCR4 wt cells
[2] = flow cytometry, PE-labelled mAb 12G5, cell surface; conditions: glycan lost; control: CXCR4 wt (CXCR4+g1g2)

Protein | other: cell permissiveness for HIV-1 (coreceptor function) [1] | expression_or_secretion, percent_of_wt [2]
B1 | no change | 
B2 | no change | no change
B3 | no change | 
B4 | no change | 
B5 | no change | no change
